Laboratory results published in patent publication US20240181074A1, “PEGYLATED T CELL ENGAGER WITH DUAL SPECIFICITIES TO CD3 AND CD19” (Shenzhen Enduring Biotech, Ltd., priority 2021, published 2024).

Key:
MOG specific B cells = experiment: ELISPOT of residual MOG specific B cells in spinal cord; format: in vivo, mice
Experimental: Since MOG specific B cells are the major source of autoantibodies for CNS myelination damage, ELISPOT was performed by following the protocol provided by the vendor's manual to compare the residual MOG specific B cells in the spinal cord of the tested animals.

EAE model = settings: cited from earlier work
CD19^+ B cells = experiment: Spleen B cells in the EAE experiment (flow cytometry); format: in vivo, mice; settings: day 15, MEDI-551 treated group
From the text: To better illustrate the mechanism of JY108 in ameliorating EAE symptoms, the spleen B cells in the EAE experiment were examined on day 15, using the same method described in Example 9.

EAE model mice = experiment: EAE model, head-to-head comparison of JY108 to MEDI-551 (Example 9); format: in vivo
Experimental: MEDI-551 (Inebilizumab) is an anti-CD19 monoclonal antibody currently under clinical trial for treating MS. […] For head-to-head comparison, EAE model in this experiment were constructed in the same way as described in Example 8 and MEDI-551 treated group (a single i.v. injection of 250 μg/animal) was included in the experiment. On Day 12 after generation of the EAE model, the male animals were randomly grouped into 4 groups (n=7): MEDI-551 treated group, model group (control), two groups treated with JY108 at 60 μg/animal and at 80 μg/animal with 5 doses in total (Day 14, Day 15, Day 17, Day 19 and Day 21). The clinical scores were recorded for each animal on daily basis (except Day 18). Female mice were grouped similarly (n=7) after day 11 of EAE induction and treated with JY108 (30, 50, 75 μg/animal) and MEDI551 (250 μg/animal).

Breg cells = Breg cells in spleen of EAE animals (PE-anti-CD19 / FITC-B10 flow cytometry); format: in vivo, mice
From the text: The seemed contradictory results prompted us to see what happened to other related immune cells after JY108 treatment. Using the method described in Example 5, the spleen cells derived from the animals in the EAE experiment were double stained with PE-anti-CD19 and FITC-B10 (a marker for Breg) and counted via flowcytometry.

B1: MEDI-551: anti-CD19 monoclonal antibody currently under clinical trial for treating MS (antibody, chains of the INN, looked up, V domains shown)
VH: EVQLVESGGGLVQPGGSLRLSCAASGFTFSSSWMNWVRQAPGKGLEWVGRIYPGDGDTNYNVKFKGRFTISRDDSKNSLYLQMNSLKTEDTAVYYCARSGFITTVRDFDYWGQGTLVTVSS
VL: EIVLTQSPDFQSVTPKEKVTITCRASESVDTFGISFMNWFQQKPDQSPKLLIHEASNQGSGVPSRFSGSGSGTDFTLTINSLEAEDAATYYCQQSKEVPFTFGGGTKVEIK
MOG specific B cells
  MOG specific B cells in the spinal cord: depleted MOG specific B cells effectively
EAE model; administered on day 7 after EAE induction (Chen 2014)
  EAE symptoms of male mice: able to delay the EAE symptoms
EAE model; pre-clinical results
  efficacy in EAE model versus anti-CD20 antibody: more effective than marketed monoclonal anti-CD20 antibody
CD19^+ B cells
  CD19^+ B cells in spleen: almost completely eliminated
EAE model mice; female mice, 250 μg/animal
  EAE symptoms (clinical score): not effective
EAE model mice; male mice, single i.v. 250 μg/animal on day 14
  EAE symptoms (clinical score): did not show any therapeutic effect
Breg cells
  effect on Breg cells: little effect
